Patent publication US20040001835A1, “Prevention or treatment of cancer using integrin alphavbeta3 antagonists in combination with other agents” (MedImmune, Inc., priority 2002, published 2004)
Read-outs that look alike come from different tables or passages of the source.

Tests used:
human αvβ3 = target: T1, human αvβ3 (Homo sapiens, UniProt P05106); assay: 125-labeled Vitaxin binding affinities and number of binding sites on cell lines; details: for Kd: read-out: Kp
T1 construct: endogenous in cells; host or cells: M21 melanoma, HMVEC, HUVEC
T1 sequence (P05106 27-788): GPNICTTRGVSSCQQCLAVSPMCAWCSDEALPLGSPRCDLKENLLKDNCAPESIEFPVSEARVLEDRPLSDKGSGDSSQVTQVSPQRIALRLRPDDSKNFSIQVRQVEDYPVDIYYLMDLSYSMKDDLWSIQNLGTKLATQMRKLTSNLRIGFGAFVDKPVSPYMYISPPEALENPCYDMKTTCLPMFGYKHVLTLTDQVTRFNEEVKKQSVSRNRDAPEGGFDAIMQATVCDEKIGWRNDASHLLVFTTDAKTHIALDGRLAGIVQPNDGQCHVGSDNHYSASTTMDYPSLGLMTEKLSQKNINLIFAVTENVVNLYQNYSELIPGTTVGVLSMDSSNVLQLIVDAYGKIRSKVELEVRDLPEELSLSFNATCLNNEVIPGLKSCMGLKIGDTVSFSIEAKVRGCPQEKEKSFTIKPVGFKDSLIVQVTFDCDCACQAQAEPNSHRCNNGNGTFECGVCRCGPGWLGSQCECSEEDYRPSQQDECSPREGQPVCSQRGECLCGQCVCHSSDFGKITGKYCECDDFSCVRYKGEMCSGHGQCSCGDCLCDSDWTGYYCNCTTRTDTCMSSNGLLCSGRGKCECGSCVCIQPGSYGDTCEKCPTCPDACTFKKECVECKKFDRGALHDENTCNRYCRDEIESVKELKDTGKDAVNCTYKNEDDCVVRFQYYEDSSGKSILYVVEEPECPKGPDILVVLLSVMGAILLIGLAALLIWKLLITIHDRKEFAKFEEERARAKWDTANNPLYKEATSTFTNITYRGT
T1 sequence (P06756 31-889 partner limits assumed): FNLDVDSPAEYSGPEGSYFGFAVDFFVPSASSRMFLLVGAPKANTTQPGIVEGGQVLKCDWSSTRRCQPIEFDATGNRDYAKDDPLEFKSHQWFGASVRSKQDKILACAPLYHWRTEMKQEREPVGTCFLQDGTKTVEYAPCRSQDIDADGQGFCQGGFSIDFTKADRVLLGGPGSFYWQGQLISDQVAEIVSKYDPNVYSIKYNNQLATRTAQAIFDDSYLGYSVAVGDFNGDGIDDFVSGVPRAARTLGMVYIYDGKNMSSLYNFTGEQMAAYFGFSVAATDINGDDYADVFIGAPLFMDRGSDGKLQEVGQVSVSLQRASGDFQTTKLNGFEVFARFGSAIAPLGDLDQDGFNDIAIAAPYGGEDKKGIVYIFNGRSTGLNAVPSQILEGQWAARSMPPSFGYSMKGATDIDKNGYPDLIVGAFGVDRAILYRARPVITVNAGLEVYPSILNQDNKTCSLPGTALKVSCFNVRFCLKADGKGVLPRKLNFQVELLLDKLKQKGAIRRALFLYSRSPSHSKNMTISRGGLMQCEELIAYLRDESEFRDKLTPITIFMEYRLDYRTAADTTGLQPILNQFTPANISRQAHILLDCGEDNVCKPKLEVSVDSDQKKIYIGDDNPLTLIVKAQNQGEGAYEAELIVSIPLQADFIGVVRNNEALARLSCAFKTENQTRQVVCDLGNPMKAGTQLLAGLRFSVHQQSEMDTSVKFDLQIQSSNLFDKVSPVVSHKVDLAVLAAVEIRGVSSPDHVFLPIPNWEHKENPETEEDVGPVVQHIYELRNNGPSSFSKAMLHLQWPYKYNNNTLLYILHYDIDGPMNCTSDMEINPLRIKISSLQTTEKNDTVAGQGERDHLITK
T1 sequence (P06756 891-1048 partner limits assumed): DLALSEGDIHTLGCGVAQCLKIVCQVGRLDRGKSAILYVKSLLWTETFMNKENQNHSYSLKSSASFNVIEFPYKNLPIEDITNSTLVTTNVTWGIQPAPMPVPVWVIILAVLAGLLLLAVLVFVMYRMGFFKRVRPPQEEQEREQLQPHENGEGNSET
Source text: ^125-labeled Vitaxin® was used to determine binding affinities and number of binding sites for human, rabbit and hamster cell lines. The affinity of Vitaxin® for hamster αvβ3 was approximately 2-3 fold lower than human αvβ3 while its affinity for rabbit αvβ3 was about 4-10 fold lower than human αvβ3.

[1] = target: T2, human β3 (αvβ3 on HEK293 cells) (Homo sapiens, UniProt P05106); assay: FACS analysis of HEK293 cells transfected with human β3 cDNA; type: binding; details: wild type human β3, flow cytometry, FIG. 4
T2 construct: expressed in transfected cells; host or cells: HEK293
T2 sequence (P05106 27-788): as the sequence (P05106 27-788) above
T2 sequence (P06756 31-889 partner limits assumed): as the sequence (P06756 31-889 partner limits assumed) above
T2 sequence (P06756 891-1048 partner limits assumed): as the sequence (P06756 891-1048 partner limits assumed) above
Source text: FIG. 4. Binding of Integrin αvβ3 specific antibodies to human β3 containing rat residues.
Sequence comparison of residues 164 to 202 of β3 integrins from different species and design of mutations. To further characterize the binding epitope of Vitaxin®, the gene encoding β3 was cloned and sequenced from hamster cDNA. The amino acids in the region previously proposed to contain the LM609 binding epitope are shown above (dashed lines depict conserved residues). To determine which residues in the human sequence were essential for antibody binding, the amino acids shown in color were mutated to the corresponding rat residues. The resulting genes were transfected to HEK293 cells which express endogenous human αv. Resulting cell lines were analyzed by flow cytometry for antibody binding.
This protocol is used to assess the surface expression of integrins in HEK-293 cells transfected with various Integrin subunits. Primary antibodies bound to the integrins are detected by fluorochrome-conjugated secondary antibodies and analyzed by flow cytometry.
1. Wash adherent cells twice with 5 ml of PBS.
2. Add 1.5 ml of trypsin solution or cell dissociation solution, incubate at 37_C. foir 2 min.
3. Add 3 ml of culture medium or FACs buffer to the plate and loosen cells from the plate by pipetting. Count cells. Resuspend cells in FACs buffer at 5×10^6 per ml.
4. […]

[2] = target: T3, modified mouse Integrin αVβ3 with amino acids 164-202 of the human β chain (Mus musculus, UniProt O54890, A208T/I198L/K199E/N204D/N207T/Q196E/S226T); assay: Binding to modified mouse Integrin αVβ3; set-up: species or system mouse/human chimera
T3 sequence (O54890 26-787 Q196E/I198L/K199E/N204D/N207T/A208T/S226T): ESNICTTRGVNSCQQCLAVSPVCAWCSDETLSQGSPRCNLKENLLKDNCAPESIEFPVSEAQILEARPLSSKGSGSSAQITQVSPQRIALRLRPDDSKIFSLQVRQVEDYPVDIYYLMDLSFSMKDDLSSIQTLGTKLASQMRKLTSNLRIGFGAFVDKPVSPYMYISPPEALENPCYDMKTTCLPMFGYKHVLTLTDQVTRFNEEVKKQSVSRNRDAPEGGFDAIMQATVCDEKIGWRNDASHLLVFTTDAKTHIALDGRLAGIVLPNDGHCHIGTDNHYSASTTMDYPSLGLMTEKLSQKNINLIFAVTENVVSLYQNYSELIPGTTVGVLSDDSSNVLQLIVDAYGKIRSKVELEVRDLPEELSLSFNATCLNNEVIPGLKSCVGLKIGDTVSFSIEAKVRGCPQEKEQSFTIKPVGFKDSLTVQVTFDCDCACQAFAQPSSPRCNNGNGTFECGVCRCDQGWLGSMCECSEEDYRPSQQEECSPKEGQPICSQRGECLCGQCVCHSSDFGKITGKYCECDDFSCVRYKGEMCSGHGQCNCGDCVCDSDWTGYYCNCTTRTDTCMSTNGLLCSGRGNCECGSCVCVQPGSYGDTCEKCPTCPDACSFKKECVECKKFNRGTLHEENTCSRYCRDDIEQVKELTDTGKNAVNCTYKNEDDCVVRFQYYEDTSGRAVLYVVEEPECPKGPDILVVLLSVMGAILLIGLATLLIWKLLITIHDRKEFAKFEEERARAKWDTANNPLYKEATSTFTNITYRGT
T3 sequence (P43406 31-885 partner): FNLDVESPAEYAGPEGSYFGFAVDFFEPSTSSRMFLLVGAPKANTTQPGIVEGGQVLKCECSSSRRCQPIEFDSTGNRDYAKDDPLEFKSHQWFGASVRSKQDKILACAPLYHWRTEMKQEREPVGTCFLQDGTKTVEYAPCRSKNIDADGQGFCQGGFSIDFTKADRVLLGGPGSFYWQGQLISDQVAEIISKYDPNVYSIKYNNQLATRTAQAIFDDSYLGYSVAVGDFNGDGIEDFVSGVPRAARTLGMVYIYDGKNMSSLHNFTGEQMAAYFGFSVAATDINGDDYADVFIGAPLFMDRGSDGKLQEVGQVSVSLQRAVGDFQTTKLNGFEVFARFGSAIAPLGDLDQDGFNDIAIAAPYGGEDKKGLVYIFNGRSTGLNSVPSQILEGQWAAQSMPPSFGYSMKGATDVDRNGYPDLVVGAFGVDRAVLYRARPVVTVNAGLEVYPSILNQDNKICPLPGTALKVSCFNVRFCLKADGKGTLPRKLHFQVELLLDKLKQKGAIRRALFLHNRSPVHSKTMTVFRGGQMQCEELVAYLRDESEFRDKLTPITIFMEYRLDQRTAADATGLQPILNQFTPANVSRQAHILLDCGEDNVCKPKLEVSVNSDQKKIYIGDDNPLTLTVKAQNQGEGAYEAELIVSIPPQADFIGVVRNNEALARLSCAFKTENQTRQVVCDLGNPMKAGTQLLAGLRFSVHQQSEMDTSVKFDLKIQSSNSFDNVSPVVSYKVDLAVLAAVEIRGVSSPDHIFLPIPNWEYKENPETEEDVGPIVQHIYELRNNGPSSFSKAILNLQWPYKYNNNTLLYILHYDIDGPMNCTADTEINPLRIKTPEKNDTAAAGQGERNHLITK
T3 sequence (P43406 887-1044 partner): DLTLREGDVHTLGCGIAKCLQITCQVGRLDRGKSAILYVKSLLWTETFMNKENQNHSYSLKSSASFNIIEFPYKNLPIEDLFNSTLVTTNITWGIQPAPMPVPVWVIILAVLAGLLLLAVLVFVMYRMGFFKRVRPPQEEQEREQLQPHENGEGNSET

[3] = Human HUVEC primary endothelium

B1: Vitaxin®: humanized blocking monoclonal antibody that binds Integrin αVβ3 (MEDI-522, MedImmune); humanized and optimized version of LM609 (antibody, chains of the INN, looked up, V domains shown)
VH: QVQLVESGGGVVQPGRSLRLSCAASGFTFSSYDMSWVRQAPGKGLEWVAKVSSGGGSTYYLDTVQGRFTISRDNSKNTLYLQMNSLRAEDTAVYYCARHLHGSFASWGQGTTVTVSS
VL: EIVLTQSPATLSLSPGERATLSCQASQSISNFLHWYQQRPGQAPRLLIRYRSQSISGIPARFSGSGSGTDFTLTISSLEPEDFAVYYCQQSGSWPLTFGGGTKVEIK
Binding Sites (human αvβ3; [3]): 8.1 × 10^4 | Kd (human αvβ3; [3]): 3.3 nM | Binding Sites (human αvβ3; Human M21 melanoma): 1.3 × 10^5 | Kd (human αvβ3; Human M21 melanoma): 2.2 nM | binding to HEK293 cells transfected with human β3 cDNA [1]: detectable | binding to modified mouse Integrin αVβ3 (human β chain amino acids 164-202) [2]: do bind
